Assay results reported in patent US8283521B2, “Transcription factor gene induced by water deficit conditions and abscisic acid from Helianthus annuus, promoter and transgenic plants” (Bioceres S.A., priority 2003, dated 2012).

System: gus gene
Experiment: Histochemical analysis of β-glucuronidase activity in transformed plants
Type: in vivo, Arabidopsis thaliana
Details: for expression of gus gene in cotyledons: 2-day germination seedlings; for induction of the promoter construct by ABA: gus reporter, ABA treatment; for expression of gus gene in different development stages and organs: several independent lines, all studied organs
Source text: When the construct including the complete segment of the small allele was employed, the expression of the gus gene in the cotyledons of 2-day germination seedlings was also viewed. However, and differing from the region 0 to −400, the expression of gus gene was very intense in the leaves and roots of the young seedlings (FIG. 20).
The inventive plants from A. thaliana that resulted resistant to kanamycin in the selection and PCR reaction of were subjected to histochemical β-glucuronidase activity test. The tested embryos and organs were washed with buffer 50 mM Na2HPO4 pH 7. They were then transferred to a solution 50 mM Na2HPO4 pH 7.0, 1% Triton X-100, 2 mM X-gluc (5-bromine-4-chlorine-3-indolil β-D-glucuronide), subjected to vacuum for 5 minutes and incubated at 37° C. in darkness between 2 and 12 hours. After incubation they were fixed in 10% formaldehide solution, 50% ethanol and 5% ascetic acid for 10 minutes at room temperature. Formaldehide was removed, ethanol 70% was added and conserved at 4° C.
The histochemical analysis was made in 2, 10 and 20 day-old seedlings grown in Petri dishes containing MS medium and 0.8% agar and adult plants grown in flowerpots containing soil.

Molecule	expression of gus gene in cotyledons	expression of gus gene in young seedlings (10 germination days)	induction of the promoter construct by ABA	expression of gus gene during the reproductive stage (reproductive stage)	expression of gus gene in leaves and roots (young seedlings)	expression of gus gene in different development stages and organs
construct 0 to −400: Hahb-4 promoter fragment, nucleotides 805 to 1221 of SEQ ID NO 3, cloned into pBI101.3 driving gus (nucleic acid, listed as Helianthus annuus, cloned in pBI101.3 driving gus; promoter (1)..(1221) Large allele) DNA: GGATGCGAACGAGTGGTTTAACCATACTTTTAAGAGGTGCGATCGGAAATTTTACCTATAAAATACACTAAAAAAGTTCCAAGGGTCCACCCACCCCTTAACCTAAGTCCGCCTTTGTCTGGATCACGTGAAACATCAGGTCTCTCCCTTACCAGTCCAGCTACGACTCATTGACAAAATATCAAAACCATATGATTTTGAGTTTTATCTCAACCGAAAGTGACATCATGACAGAGAATCGACATAACCAAAACGTGTAAACGTACAACTCACCATTGCGTTGAAAAGGACAAAACAGGTAGGATTCTTGTCAAATTCAACGCGTACACCTGTGCTTCATCTAAACCCCATACTTTAAGAACCTTTATAAAGACCACTCACTATATATACACATATATAATATCACTTATCAAACCC	enough to drive the expression of gene gus	not detectable	capable of being induced by ABA			
construct including the complete segment of the small allele: promoting region from 0 to −1015 (small allele, SEQ ID NO 10) cloned in pBI101.3 driving gus (nucleic acid, listed as Helianthus annuus, cloned in pBI101.3 driving gus) DNA: GATCCAATTGGACCACCTGGCACATCGTATCTTATCTCTTTTGTCGTTTCCAACACACCACAACACACCTACAAACGTGTCAATTCACACTTCACCAATTTCATTTCCTTTTAGTCAATCATATTAAAAGTAGTAGCCCCCACCCCCATTTGTTACCTACCATTTCCCACTTTAATAATCACCCACGCTATGTCCACTTGTACTTTTGTTTGCACACAACTCTTCCCATAAAATATCAAACCAAATTTTTTTTAATGGAAAACAAATACTTCAAATGCACTATTGGTGAAATTCACCACATCAGAATACACCCGTCTCTACTCATCTACTGGCCAACGAATCTTCACGGGGGAAACCCTCACTCGTCTACTGGGACTACTGGCGCTTCAAAATGGACTACTGACAAAATTCACCACATCGGGATACACTTGTCTACTGCGGTGAGGTAAAATCCGCCGCTCAGCTCAATGATCGAACTAGCGATCGCCACCCACTCACCTTGTCTCCCATCATCACCAGGTGCCGCCAAAACAAAATGTTGGGGGCGGGAATTGAACCTAGGTCCAGTGGCGCACCCATGAATTTTTTTTCTAGGGATGCGAACGAGTGATTTAACCATACTTTTAAGAGGTGCGATCGGAAATTTTACCTATAAAATATACTAAAAAAATTTCAAGGGTCCGCCCACCCACCCCTTAACCTAAGTCCGCCTCTGCCTGGATCACGTGAAACATCAGGTCTCTCTCTTACCAGTTCACCTACAACTCATTGACAAAATATCAAAACCATATGATTTTGAGTTTTATCTCAACCGAAAGTGACATCATGACAGAGAATCGACATAACCAAAACGTGTAAACGTACAACTCACCATTGCGTTGAAAAGGACAAAACAGGTAGGATTCTTGTCAAATTCAACGCGTACACCTGTGCTTCATCTAAACCCCATACTTTAAGAACCTTTATAAAGACCACTCACTATATATACACATATATAATATCACTTATCAAACCC	also viewed			not detected any expression	very intense	
region 0 to −300: promoter fragment, nucleotides 904 to 1221 of SEQ ID NO 3, in pBI101.3 (nucleic acid, listed as Helianthus annuus, in pBI101.3; promoter (1)..(1221) Large allele) DNA: AACCTAAGTCCGCCTTTGTCTGGATCACGTGAAACATCAGGTCTCTCCCTTACCAGTCCAGCTACGACTCATTGACAAAATATCAAAACCATATGATTTTGAGTTTTATCTCAACCGAAAGTGACATCATGACAGAGAATCGACATAACCAAAACGTGTAAACGTACAACTCACCATTGCGTTGAAAAGGACAAAACAGGTAGGATTCTTGTCAAATTCAACGCGTACACCTGTGCTTCATCTAAACCCCATACTTTAAGAACCTTTATAAAGACCACTCACTATATATACACATATATAATATCACTTATCAAACCC			not induced by ABA			not expressed
region 0 to −200: promoter fragment, nucleotides 1011 to 1221 of SEQ ID NO 3, in pBI101.3 (nucleic acid, listed as Helianthus annuus, in pBI101.3; promoter (1)..(1221) Large allele) DNA: ATCTCAACCGAAAGTGACATCATGACAGAGAATCGACATAACCAAAACGTGTAAACGTACAACTCACCATTGCGTTGAAAAGGACAAAACAGGTAGGATTCTTGTCAAATTCAACGCGTACACCTGTGCTTCATCTAAACCCCATACTTTAAGAACCTTTATAAAGACCACTCACTATATATACACATATATAATATCACTTATCAAACCC			not induced by ABA			not expressed
